These sequences were tested on c-Src (assay: phosphorylation enrichment, bacterial display (enrichment ratio); higher = better substrate or ligand; peptides without Tyr show the background).
SGSIHYSRVPR [GLB1_Y57] was tested, and the phosphorylation enrichment was 0.677.
Sequence KDHLDYKYQPR [SOX9_Y172_P170L] has a phosphorylation enrichment of 0.433.
For VVLVSYVPFSQ [SH2B1_Y624_S627F], the phosphorylation enrichment was 0.833.
For QYKDKYLAKHN [CASK_Y712], the phosphorylation enrichment was 0.308.
Work on MAFDRYVAVCA [OR52J3_Y125] yielded a phosphorylation enrichment of 0.458.
TEDELYQLSLQ [RASGRP2_Y378] gave a phosphorylation enrichment of 1.33.
EKQVAYCPSGR [ROS1_Y2323_K2328R] showed a phosphorylation enrichment of 0.782.
Sequence ASNNPYFRDQA [RPGRIP1_Y846] has a phosphorylation enrichment of 0.512.
In the case of GVFSRHFTTFD [CLCA1_Y661_Y661H_YF], the phosphorylation enrichment is reported as 0.184.
DLDFTYIYPNI [PTEN_Y27_L25F] gave a phosphorylation enrichment of 1.47.
GASRRYGSGVS [NEU1_Y242_W240R] gave a phosphorylation enrichment of 0.41.
RRVLVYRGRGA [QDPR_Y16_G17R] gave a phosphorylation enrichment of 0.754.
Sequence NTGNYYDLYGG [PTPN11_Y63_D61N] has a phosphorylation enrichment of 5.29.
VNKIFYPDFIV [LIG3_Y768_YF] gave a phosphorylation enrichment of 0.432.
For GKSFTYAAFHA [KCNT1_Y563], the phosphorylation enrichment was 5.91.
For QTEAEYRFIFM [PTPN11_Y511_Q510E_YF], the phosphorylation enrichment was 0.525.
With IGSHAYGDQYR [IDH1_Y135_R132S] the phosphorylation enrichment was 0.43.
Work on GGYTCYSDGKK [PROS1_Y266_C267S] yielded a phosphorylation enrichment of 0.516.
Sequence INQGPYENHSV [ATP6V1B1_Y462_R465H] has a phosphorylation enrichment of 0.524.
Sequence KEKLCYVALDF [ACTA1_Y220] has a phosphorylation enrichment of 1.81.
In the case of KDQPDYKYQPR [SOX9_Y172_H169Q], the phosphorylation enrichment is reported as 0.396.
With FLENFYDLKKD [MMP3_Y42_YF] the phosphorylation enrichment was 1.9.
With SSPQPYLVPFL [TAF4_Y652] the phosphorylation enrichment was 0.49.
In the case of AVIADYMFWLG [SPATA16_Y290_M286V], the phosphorylation enrichment is reported as 1.17.
With SISLRYEGRVF [ABL1_Y167_YF] the phosphorylation enrichment was 0.372.
With ENRKYYKDLKE [PURA_Y156_M157K] the phosphorylation enrichment was 0.352.
DPFHVYIKNHV [KCNE3_Y95_R99H_YF] showed a phosphorylation enrichment of 0.403.
Work on SVKVFYKKCWS [EPHA7_Y202_YF] yielded a phosphorylation enrichment of 0.59.
Sequence MSRDIYSTDFF [NTRK1_Y676_YF] has a phosphorylation enrichment of 5.13.

What follows are sequences tested against Grb2 SH2 (UniProt P62993) (assay: SH2 binding enrichment of the phosphorylated peptide, bacterial display (enrichment ratio); higher = better substrate or ligand; peptides without Tyr show the background).
Chain of Grb2 SH2 (P62993 whole entry, looked up): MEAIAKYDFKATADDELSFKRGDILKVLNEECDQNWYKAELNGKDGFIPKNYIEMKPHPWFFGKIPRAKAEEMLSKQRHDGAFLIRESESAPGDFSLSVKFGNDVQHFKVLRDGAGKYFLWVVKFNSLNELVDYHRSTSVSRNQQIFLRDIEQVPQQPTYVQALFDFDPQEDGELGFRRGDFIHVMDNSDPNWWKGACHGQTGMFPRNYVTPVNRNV
Sequence SGSIHYSRVPR [GLB1_Y57] has an SH2 binding enrichment of 0.734.
KDHLDYKYQPR [SOX9_Y172_P170L] gave an SH2 binding enrichment of 1.18.
VVLVSYVPFSQ [SH2B1_Y624_S627F] gave an SH2 binding enrichment of 1.28.
With QYKDKYLAKHN [CASK_Y712] the SH2 binding enrichment was 0.648.
MAFDRYVAVCA [OR52J3_Y125] was tested, and the SH2 binding enrichment was 0.746.
TEDELYQLSLQ [RASGRP2_Y378] showed an SH2 binding enrichment of 0.661.
For EKQVAYCPSGR [ROS1_Y2323_K2328R], the SH2 binding enrichment was 1.01.
Sequence ASNNPYFRDQA [RPGRIP1_Y846] has an SH2 binding enrichment of 0.89.
In the case of GVFSRHFTTFD [CLCA1_Y661_Y661H_YF], the SH2 binding enrichment is reported as 0.674.
With DLDFTYIYPNI [PTEN_Y27_L25F] the SH2 binding enrichment was 0.67.
In the case of GASRRYGSGVS [NEU1_Y242_W240R], the SH2 binding enrichment is reported as 0.852.
Sequence RRVLVYRGRGA [QDPR_Y16_G17R] has an SH2 binding enrichment of 0.71.
In the case of NTGNYYDLYGG [PTPN11_Y63_D61N], the SH2 binding enrichment is reported as 1.08.
VNKIFYPDFIV [LIG3_Y768_YF] gave an SH2 binding enrichment of 1.14.
GKSFTYAAFHA [KCNT1_Y563] gave an SH2 binding enrichment of 0.855.
QTEAEYRFIFM [PTPN11_Y511_Q510E_YF] showed an SH2 binding enrichment of 0.643.
For IGSHAYGDQYR [IDH1_Y135_R132S], the SH2 binding enrichment was 0.848.
Sequence GGYTCYSDGKK [PROS1_Y266_C267S] has an SH2 binding enrichment of 0.677.
INQGPYENHSV [ATP6V1B1_Y462_R465H] gave an SH2 binding enrichment of 4.77.
With KEKLCYVALDF [ACTA1_Y220] the SH2 binding enrichment was 0.727.
For KDQPDYKYQPR [SOX9_Y172_H169Q], the SH2 binding enrichment was 0.977.
For FLENFYDLKKD [MMP3_Y42_YF], the SH2 binding enrichment was 0.821.
For SSPQPYLVPFL [TAF4_Y652], the SH2 binding enrichment was 0.86.
AVIADYMFWLG [SPATA16_Y290_M286V] showed an SH2 binding enrichment of 1.42.
With SISLRYEGRVF [ABL1_Y167_YF] the SH2 binding enrichment was 1.05.
Sequence ENRKYYKDLKE [PURA_Y156_M157K] has an SH2 binding enrichment of 0.713.
Work on DPFHVYIKNHV [KCNE3_Y95_R99H_YF] yielded an SH2 binding enrichment of 0.978.
For SVKVFYKKCWS [EPHA7_Y202_YF], the SH2 binding enrichment was 0.747.
Sequence MSRDIYSTDFF [NTRK1_Y676_YF] has an SH2 binding enrichment of 1.01.

What follows are sequences tested against SHP2-C SH2 in the same assay as above.
Work on SGSIHYSRVPR [GLB1_Y57] yielded an SH2 binding enrichment of 0.824.
Work on KDHLDYKYQPR [SOX9_Y172_P170L] yielded an SH2 binding enrichment of 1.09.
VVLVSYVPFSQ [SH2B1_Y624_S627F] gave an SH2 binding enrichment of 1.03.
In the case of QYKDKYLAKHN [CASK_Y712], the SH2 binding enrichment is reported as 0.798.
For MAFDRYVAVCA [OR52J3_Y125], the SH2 binding enrichment was 0.647.
With TEDELYQLSLQ [RASGRP2_Y378] the SH2 binding enrichment was 0.563.
For EKQVAYCPSGR [ROS1_Y2323_K2328R], the SH2 binding enrichment was 0.59.
ASNNPYFRDQA [RPGRIP1_Y846] gave an SH2 binding enrichment of 0.689.
GVFSRHFTTFD [CLCA1_Y661_Y661H_YF] showed an SH2 binding enrichment of 0.612.
DLDFTYIYPNI [PTEN_Y27_L25F] gave an SH2 binding enrichment of 0.496.
GASRRYGSGVS [NEU1_Y242_W240R] was tested, and the SH2 binding enrichment was 0.565.
With RRVLVYRGRGA [QDPR_Y16_G17R] the SH2 binding enrichment was 0.5.
NTGNYYDLYGG [PTPN11_Y63_D61N] showed an SH2 binding enrichment of 0.854.
Work on VNKIFYPDFIV [LIG3_Y768_YF] yielded an SH2 binding enrichment of 0.919.
Sequence GKSFTYAAFHA [KCNT1_Y563] has an SH2 binding enrichment of 0.527.
Sequence QTEAEYRFIFM [PTPN11_Y511_Q510E_YF] has an SH2 binding enrichment of 0.39.
For IGSHAYGDQYR [IDH1_Y135_R132S], the SH2 binding enrichment was 0.521.
GGYTCYSDGKK [PROS1_Y266_C267S] showed an SH2 binding enrichment of 0.745.
With INQGPYENHSV [ATP6V1B1_Y462_R465H] the SH2 binding enrichment was 0.777.
KEKLCYVALDF [ACTA1_Y220] was tested, and the SH2 binding enrichment was 1.04.
In the case of KDQPDYKYQPR [SOX9_Y172_H169Q], the SH2 binding enrichment is reported as 0.775.
Sequence FLENFYDLKKD [MMP3_Y42_YF] has an SH2 binding enrichment of 0.788.
In the case of SSPQPYLVPFL [TAF4_Y652], the SH2 binding enrichment is reported as 1.66.
In the case of AVIADYMFWLG [SPATA16_Y290_M286V], the SH2 binding enrichment is reported as 1.4.
In the case of SISLRYEGRVF [ABL1_Y167_YF], the SH2 binding enrichment is reported as 0.926.
Sequence ENRKYYKDLKE [PURA_Y156_M157K] has an SH2 binding enrichment of 0.574.
DPFHVYIKNHV [KCNE3_Y95_R99H_YF] was tested, and the SH2 binding enrichment was 0.839.
SVKVFYKKCWS [EPHA7_Y202_YF] showed an SH2 binding enrichment of 0.707.
For MSRDIYSTDFF [NTRK1_Y676_YF], the SH2 binding enrichment was 1.09.

These sequences were tested against c-Src SH2 in the same assay as above.
In the case of SGSIHYSRVPR [GLB1_Y57], the SH2 binding enrichment is reported as 0.861.
KDHLDYKYQPR [SOX9_Y172_P170L] gave an SH2 binding enrichment of 0.697.
Work on VVLVSYVPFSQ [SH2B1_Y624_S627F] yielded an SH2 binding enrichment of 0.906.
QYKDKYLAKHN [CASK_Y712] was tested, and the SH2 binding enrichment was 1.02.
With MAFDRYVAVCA [OR52J3_Y125] the SH2 binding enrichment was 0.663.
TEDELYQLSLQ [RASGRP2_Y378] was tested, and the SH2 binding enrichment was 0.412.
EKQVAYCPSGR [ROS1_Y2323_K2328R] showed an SH2 binding enrichment of 0.631.
For ASNNPYFRDQA [RPGRIP1_Y846], the SH2 binding enrichment was 0.51.
In the case of GVFSRHFTTFD [CLCA1_Y661_Y661H_YF], the SH2 binding enrichment is reported as 1.78.
DLDFTYIYPNI [PTEN_Y27_L25F] showed an SH2 binding enrichment of 2.69.
GASRRYGSGVS [NEU1_Y242_W240R] gave an SH2 binding enrichment of 0.383.
RRVLVYRGRGA [QDPR_Y16_G17R] gave an SH2 binding enrichment of 0.425.
NTGNYYDLYGG [PTPN11_Y63_D61N] showed an SH2 binding enrichment of 2.49.
VNKIFYPDFIV [LIG3_Y768_YF] showed an SH2 binding enrichment of 0.498.
Work on GKSFTYAAFHA [KCNT1_Y563] yielded an SH2 binding enrichment of 0.41.
For QTEAEYRFIFM [PTPN11_Y511_Q510E_YF], the SH2 binding enrichment was 0.364.
Work on IGSHAYGDQYR [IDH1_Y135_R132S] yielded an SH2 binding enrichment of 0.433.
For GGYTCYSDGKK [PROS1_Y266_C267S], the SH2 binding enrichment was 0.555.
With INQGPYENHSV [ATP6V1B1_Y462_R465H] the SH2 binding enrichment was 2.07.
KEKLCYVALDF [ACTA1_Y220] was tested, and the SH2 binding enrichment was 0.46.
KDQPDYKYQPR [SOX9_Y172_H169Q] gave an SH2 binding enrichment of 0.493.
Work on FLENFYDLKKD [MMP3_Y42_YF] yielded an SH2 binding enrichment of 0.519.
SSPQPYLVPFL [TAF4_Y652] gave an SH2 binding enrichment of 0.829.
AVIADYMFWLG [SPATA16_Y290_M286V] was tested, and the SH2 binding enrichment was 1.
With SISLRYEGRVF [ABL1_Y167_YF] the SH2 binding enrichment was 0.68.
For ENRKYYKDLKE [PURA_Y156_M157K], the SH2 binding enrichment was 0.592.
For DPFHVYIKNHV [KCNE3_Y95_R99H_YF], the SH2 binding enrichment was 0.643.
SVKVFYKKCWS [EPHA7_Y202_YF] showed an SH2 binding enrichment of 0.396.
Work on MSRDIYSTDFF [NTRK1_Y676_YF] yielded an SH2 binding enrichment of 0.512.

— the supplement of paper PMC10065799, “High-throughput profiling of sequence recognition by tyrosine kinases and SH2 domains using bacterial peptide display” (eLife, 2023)
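For SH2 binding enrichment of the phosphorylated peptide, bacterial display in this document: peptide library displayed on the E. coli surface as eCPX fusions, selected cells deep-sequenced, score is each peptide's frequency after selection divided by its frequency in the input.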
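For phosphorylation enrichment, bacterial display in this document: 11-residue human phosphosite peptides and single-mutation variants displayed on the E. coli surface, counted by deep sequencing, each peptide's frequency after selection divided by its frequency in the unselected input library; frequency after pTyr selection over input frequency; kinase dosed for 20-30% of maximal phosphorylation in three min.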
